How the values were obtained:
[1] = system: E. coli Top10ΔserB; assay: CAT (UAG at position 112) suppression assay, chloramphenicol resistance; format: cell-based, Escherichia coli
Protocol: The suppressor tRNA^Sep was coexpressed with the indicated enzymes in E. coli Top10ΔserB. Selection was carried out on LB agar plates containing 2 mM Sep and various concentrations of chloramphenicol.
pCAT112TAG-SepT was created from pACYC 184. The gene encoding chloramphenicol acetyltransferae (CAT) was modified by quickchange mutagenesis to introduce an amber stop codon at position Asp112 (Wang L, et al. Science 292:498 (2001)). The resulting plasmid was PCR amplified using primers PBLAF (5′-TGCGCAATGCGGCCGCCCGTAGCGCCGATGGTAGTGT-3′, SEQ ID NO:9) and PBLAR (5′-ACACGGAGATCTCTAAAGTATATATGAGTAAAC-3′, SEQ ID NO: 10) and ligated with a PCR product containing a tRNA^Sep expression cassette from pSepT, created with primers TSEPF (5′-GCATGCGCCGCCAGCTGTTGCCCGTCTCGC-3′, SEQ ID NO:17) and TSEPR (5′-GCATAGATCTTCAGCTGGCGAAAGGGGGATG-3′, SEQ ID NO:18).
Efficient and selective addition of Sep to the E. coli genetic repertoire requires exclusive interaction of SepRS with tRNA^Sep for Sep-tRNA^Sep formation without interfering in the host translation system as well as a sufficient intracellular concentration of Sep. As E. coli has a Sep-compatible transporter (Wanner, B L. FEMS Microbiol Lett 79, 133 (1992)), Sep (2 mM) was added to the growth medium, and the endogenous serB gene encoding phosphoserine phosphatase was deleted in the E. coli test strain. To assess whether the Mj tRNA^Sep/Mmp SepRS pair is functional and orthogonal in E. coli, a suppression assay was performed that employed a chloramphenicol acetyltransferase (CAT) gene with a UAG stop codon at the permissive position 112 (wild-type amino acid: Asp) to produce chloramphenicol (Cm) acetyltransferase; then cell survival was measured in the presence of Sep and varying amounts of Cm. The different IC50 values (FIG. 2) relate to suppression efficiency (i.e., amount of CAT made dependent on the various transformed genes). When only tRNA^Sep is expressed (FIG. 2, second bar) Cm resistance increases about 3.3-fold over background (FIG. 2, first bar). Thus, tRNA^Sep can be aminoacylated to a certain degree by an unknown E. coli aminoacyl-tRNA synthetase (Gln is being incorporated at the amber stop codon). […] This may indicate that SepRS can out-compete any endogenous aminoacyl-tRNA synthetase and form Sep-tRNAS^Sep; however, this aminoacyl-tRNA is not delivered to the ribosome or not accommodated on the ribosome. […] Co-expression of tRNA^Sep, SepRS and SepCysS should result in formation of Sep-tRNA^Sep and subsequent SepCysS-mediated conversion to Cys-tRNA^Sep (A. Sauerwald et al., Science 307, 1969 (2005)). Indeed, a 2.3-fold increase in Cm resistance is observed (FIG. 2, sixth bar). This further supports the notion that while Sep-tRNA^Sep is synthesized, it cannot be used properly by the E. coli protein biosynthesis machinery.
Resulting pKD-SepRS-EFTu plasmids were transformed into E. coli Top10ΔserB containing pCAT112-SepT for a third round of selection which was carried out under the same conditions as the first. This time, individual colonies were isolated from agar plates and clones were tested for their ability to grow on Cm over a concentration range from […]. Total plasmid was purified from isolates showing strong Cm resistance, and pKD-SepRS-EFTu plasmids were subjected to sequencing. […]

[2] = system: [^35S]Cys-tRNA^Cys; assay: EF-Tu hydrolysis protection assay with Cys-tRNA^Cys; format: binding, Methanocaldococcus jannaschii; settings: pH 8.2; FIG. 5A
Protocol: FIGS. 5A and 5B are graphs showing EF-Tu protects Cys-tRNA^Cys(FIG. 5A) but not Sep-tRNA^Cys (FIG. 5B) from deacylation. Hydrolysis of M. jannaschii [^35S]Cys-tRNA^Cys or [^14C]Sep-tRNA^Cys was determined at pH 8.2 and room temperature in the presence or absence of EF-Tu.
Given that EF-Tu is a component of quality control in protein synthesis (LaRiviere, FJ., et al. Science 294, 165 (2001)), it is highly plausible that Sep-tRNA^Sep may be rejected by EF-Tu in order not to interfere with the complicated cellular mechanism of phosphoprotein production. […] This assumption was tested in EF-Tu mediated Sep-tRNA hydrolysis protection experiments (J. Ling et al., Proc Natl Acad Sci USA 104, 15299 (2007)), and incubated recombinant E. coli EF-Tu with the Mj tRNA^Cys in vitro transcript either acylated with [^35S]Cys or [^14C]Sep at pH 8.2. […]
(§1) To assay hydrolysis protection of acylated tRNA^Cys by EF-Tu, […] tRNA^Cys in vitro transcripts acylated with [^14C]Sep or [^35S]Cys, respectively, were phenol/chlorophorm extracted, and the aqueous phase was passed over Sephadex® G25 Microspin columns (GE Healthcare) equilibrated with water. […] Hydrolysis of 2 μM [^14C]Sep-tRNA^Cys was then monitored at 25° C. in the presence of 40 μM EF-Tu (wt), EF-Sep, or BSA, respectively. […] Filters were washed with 5% trichloroacetic acid, dried, and radioactivity was measured by liquid scintillation counting.

[3] = system: [^14C]Sep-tRNA^Cys; assay: EF-Tu hydrolysis protection assay with Sep-tRNA^Cys; format: binding, Methanocaldococcus jannaschii; settings: pH 8.2; 40 μM factor, 2 μM [^14C]Sep-tRNA^Cys, 25° C.; FIG. 3 and FIG. 5B
Protocol: Protection of Sep-tRNA^Cys by EF-Tu was assayed as described earlier with slight modifications (Ling J, et al. RNA. 2007 November; 13(11):1881-6.). Briefly, EF-Tu or EF-Sep (both purified as maltose binding protein fusion proteins) were activated for 20 min. at 37° C. in buffer containing 100 mM Tris-HCl (pH 8.2), 120 mM NH4Cl, 7 mM MgCl2, 5 mM DTT, 5 mM phosphoenolpyruvate, 1.5 mM GTP, and 0.12 μg/μl pyruvate kinase. Hydrolysis of 2 μM [^14C]Sep-tRNA^Cys was then monitored at 25° C. in the presence of 40 μM EF-Tu (wt), EF-Sep, or BSA, respectively. Aliquots were taken from the reaction mix at indicated time points and spotted on 3MM filter discs presoaked with 10% trichloroacetic acid. Filters were washed with 5% trichloroacetic acid, dried, and radioactivity was measured by liquid scintillation counting.
as §1

[4] = system: Mmp SepRS; assay: In vitro aminoacylation of tRNA with Sep by Mmp SepRS; format: biochemical, Methanococcus maripaludis
Protocol: In vitro transcript of Methanocaldococcus jannaschii tRNA^Cys was prepared and acylated with [^14C]Sep (55 mCi/mmol) using recombinant Methanococcus maripaludis SepRS as described previously by Hohn M J, et al. Proc Natl Acad Sci USA. 2006 Nov. 28; 103(48):18095-100. Sep-tRNA^Cys was phenol/chlorophorm extracted, and the aqueous phase was passed over Sephadex G25 Microspin columns (GE Healthcare) equilibrated with water.
Total tRNA from E. coli Top10 or from E. coli Top10 complemented with pCysT or pSepT, respectively, was purified by standard procedures and acylated with [^14C]Sep by M. maripaludis SepRS as described previously. […] M. jannaschii tRNA^Cys contains m^1G37 when isolated from M. jannaschii. Since the E. coli methylase TrmD is known to methylate G37 of archaeal tRNA^Pro, it is believed that the in vivo expressed tRNA^Sep also carries the m^1G37 modification. In vitro transcript of M. jannaschii tRNA^Cys was prepared and acylated with [^14C]Sep or [^35S]Cys using recombinant M. maripaludis SepRS or CysRS. M. jannaschii tRNA^Cys transcript was chosen for these experiments because of the poor folding properties of in vitro transcribed M. maripaludis tRNA^Cys (Hohn, M. J. Proc Natl Acad Sci USA 103, 18095 (2006)).

Mmp SepRS, sequence (as listed by the source): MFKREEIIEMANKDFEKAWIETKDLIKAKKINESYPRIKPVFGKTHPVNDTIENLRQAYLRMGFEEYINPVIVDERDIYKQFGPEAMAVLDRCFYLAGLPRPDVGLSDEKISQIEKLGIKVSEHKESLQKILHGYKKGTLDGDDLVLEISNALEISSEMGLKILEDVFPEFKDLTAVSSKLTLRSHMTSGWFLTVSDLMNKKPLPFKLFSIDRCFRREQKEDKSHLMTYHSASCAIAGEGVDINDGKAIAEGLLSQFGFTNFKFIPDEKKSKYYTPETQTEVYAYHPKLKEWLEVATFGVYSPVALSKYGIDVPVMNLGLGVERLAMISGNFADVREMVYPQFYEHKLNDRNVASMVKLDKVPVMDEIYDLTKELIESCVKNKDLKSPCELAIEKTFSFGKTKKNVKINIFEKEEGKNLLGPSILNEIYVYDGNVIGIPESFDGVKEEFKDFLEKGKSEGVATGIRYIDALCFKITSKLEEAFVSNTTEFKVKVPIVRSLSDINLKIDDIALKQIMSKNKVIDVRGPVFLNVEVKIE

EF-Tu: wild type recombinant E. coli elongation factor Tu
Cm resistance ([1]; tRNA^Sep and SepRS plus additional EF-Tu, FIG. 2 fifth bar): does not improve the result
protection of Cys-tRNA^Cys from deacylation [2]: protected
protection of Sep-tRNA^Cys from deacylation [3]: significantly deacylated irrespective of the presence of EF-Tu

B1: tRNA^Sep: amber suppressor tRNA derived from Mj tRNA^Cys with C20U change and two anticodon mutations; SEQ ID NO:41 (nucleic acid)
chain: GCCGGGGTAGTCTAGGGGTTAGGCAGCGGACTGCAGATCCGCCTTACGTGGGTTCAAATCCCACCCCCGGCT
modifications: expressed or natural sequence
activity of tRNA^Sep when compared to tRNA^Cys ([4]; in vitro aminoacylation by Mmp SepRS, tRNA overexpressed in E. coli, effect of the anticodon change, FIG. 1C): about 40%
improvement of aminoacylation by SepRS through the C20U change ([4]; tRNA^Sep derived from Mj tRNA^Cys, no effect on CysRS recognition): 2.5 fold
increase in Cm resistance ([1]; co-expression of tRNA^Sep and Mmp CysRS, FIG. 2 eight bar): 12.3 fold
increase in Cm resistance ([1]; co-expression of tRNA^Sep, SepRS and SepCysS, FIG. 2 sixth bar): 2.3 fold
increase in Cm resistance over background ([1]; only tRNA^Sep expressed, 2 mM Sep, FIG. 2 second bar): about 3.3 fold
Cm resistance ([1]; simultaneous expression of tRNA^Sep and SepRS, FIG. 2 third bar): does not provide Cm resistance
